# Experimental data published in patent publication US8143216B2, “Modified human growth hormone” (Ambrx, Inc., priority 2004, dated 2012).
# Tested on: not listed separately
# Assay: Pharmacokinetic studies, single s.c. dose in normal male Sprague-Dawley rats
# Type: in vivo, rat
# Settings: single-dose 1 mg/kg bolus s.c., normal male Sprague-Dawley rats
# Description: Pharmacokinetic properties of PEG-modified growth hormone compounds were compared to each other and to nonPEGylated growth hormone in male Sprague-Dawley rats (261-425 g) obtained from Charles River Laboratories. Catheters were surgically installed into the carotid artery for blood collection. Following successful catheter installation, animals were assigned to treatment groups (three to six per group) prior to dosing. Animals were dosed subcutaneously with 1 mg/kg of compound in a dose volume of 0.41-0.55 ml/kg. Blood samples were collected at various time points via the indwelling catheter and into EDTA-coated microfuge tubes. Plasma was collected after centrifugation, and stored at −80° C. until analysis. Compound concentrations were measured using antibody sandwich growth hormone ELISA kits from either BioSource International (Camarillo, Calif.) or Diagnostic Systems Laboratories (Webster, Tex.). Concentrations were calculated using standards corresponding to the analog that was dosed. Pharmacokinetic parameters were estimated using the modeling program WinNonlin (Pharsight, version 4.1). Noncompartmental analysis with linear-up/log-down trapezoidal integration was used, and concentration data was uniformly weighted.
# Rats (n=3-4 per group) were given a single bolus dose of 1 mg/kg hGH wild-type protein (WHO hGH), His-tagged hGH polypeptide (his-hGH), or His-tagged hGH polypeptide comprising non-natural amino acid p-acetyl-phenylalanine at position 92 covalently linked to 30 kDa PEG (30 KPEG-pAF92(his)hGH). Plasma samples were taken over the indicated time intervals and assayed for injected compound as described.
# Rats (n=3-6 per group) were given a single bolus dose of 1 mg/kg protein. hGH polypeptides comprising non-natural amino acid p-acetyl-phenylalanine covalently linked to 30 kDa PEG at each of six different positions were compared to WHO hGH and (his)-hGH. Plasma samples were taken over the indicated time intervals and assayed for injected compound as described. Concentration vs time curves were evaluated by noncompartmental analysis (Pharsight, version 4.1). Values shown are averages (+/− standard deviation). Cmax: maximum concentration; terminal t1/2: terminal half-life; AUC0->inf: area under the concentration-time curve extrapolated to infinity; MRT: mean residence time; Cl/f: apparent total, plasma clearance; Vz/f: apparent volume of distribution during terminal phase.
Substance,AUC0−>inf,Cl/f [mL/min/kg],Cmax [ng/mL],MRT [h],Terminal t1/2 [h]
Y143pAF-30KPEG: hGH polypeptide comprising p-acetyl-phenylalanine at position 143 covalently linked to 30 kDa PEG,"17,494 ng × hr/ml",0.983,803,18.83,6.02
G131pAF-30KPEG: hGH polypeptide comprising p-acetyl-phenylalanine at position 131 covalently linked to 30 kDa PEG,"6,978 ng × hr/ml",2.68,497,14.28,4.41
K145pAF-30KPEG: hGH polypeptide comprising p-acetyl-phenylalanine at position 145 covalently linked to 30 kDa PEG,"13,162 ng × hr/ml",1.47,634,17.82,5.87

# Target: T1, rat GHR ECD (L43R) (Rattus norvegicus, UniProt P16310, L61R)
# T1 construct: (GHR ECD, amino acids S29-T238) was cloned into pET20b vector; made in house
# T1 sequence (P16310 47-256 L61R): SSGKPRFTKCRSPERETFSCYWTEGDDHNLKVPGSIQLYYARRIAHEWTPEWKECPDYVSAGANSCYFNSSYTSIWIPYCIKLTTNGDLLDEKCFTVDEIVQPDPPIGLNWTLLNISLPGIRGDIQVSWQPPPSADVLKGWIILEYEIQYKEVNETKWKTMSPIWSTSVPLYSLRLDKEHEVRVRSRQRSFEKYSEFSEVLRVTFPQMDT
# Assay: Biacore analysis of binding of GH to GHR
# Settings: rat GHR ECD (L43R) immobilized on a CM5 chip, bivalent analyte model
# Description: Cloning and purification of rat GH receptor The extracellular domain of rat GH receptor (GHR ECD, amino acids S29-T238) was cloned into pET20b vector (Novagen) between Nde I and Hind III sites in frame with C-terminal 6H is tag. A mutation of L43 to R was introduced to further approximate the human GH receptor binding site (Souza et al., Proc Natl Acad Sci USA. (1995) 92(4): 959-63). Recombinant protein was produced in BL21 (DE3) E. coli cells (Novagen) by induction with 0.4 mM IPTG at 30° C. for 4-5 hours. After lysing the cells, the pellet was washed four times by resuspending in a dounce with 30 mL of 50 mM Tris, pH 7.6, 100 mM NaCl, 1 mM EDTA, 1% Triton X-100, and twice with the same buffer without Triton X-100. […] Refolding was accomplished by means of passing an aliquot of the inclusion body solution through a S100 (Sigma) gel filtration column, equilibrated with 50 mM Tris, pH 7.8, 1 M L-arginine, 3.7 mM cystamine, 6.5 mM cysteamine. Fractions containing soluble protein were combined and dialyzed against 50 mM Tris, pH 7.6, 200 mM NaCl, 10% glycerol. The sample was briefly centrifuged to remove any precipitate and incubated with an aliquot of Talon resin (Clontech), according to manufacturer's instructions. After washing the resin with 20 volumes of dialysis buffer supplemented with 5 mM imidazole, protein was eluted with 120 mM imidazole in dialysis buffer. Finally, the sample was dialyzed overnight against 50 mM Tris, pH 7.6, 30 mM NaCl, 1 mM EDTA, 10% glycerol, centrifuged briefly to remove any precipitate, adjusted to 20% glycerol final concentration, aliquoted and stored at −80 C. Concentration of the protein was measured by OD(280) using calculated extinction coefficient of ε=65,700 M^−1*cm^−1.
# Approximately 600-800 RUs of soluble GHR ECD was immobilized on a Biacore™ CM5 chip, using a standard amine-coupling procedure, as recommended by the manufacturer. […] See, e.g., Cunningham et al. J Mol. Biol. (1993) 234(3): 554-63 and Wells J A. Proc Natl Acad Sci USA (1996) 93(1): 1-6).
# Various concentrations of wild type or mutant GH (0.1-300 nM) in HBS-EP buffer (Biacore™, Pharmacia) were injected over the GHR surface at a flow rate of 40 μl/min for 4-5 minutes, and dissociation was monitored for 15 minutes post-injection. The surface was regenerated by a 15 second pulse of 4.5M MgCl2. […] Reference cell with no receptor immobilized was used to subtract any buffer bulk effects and non-specific binding.
# Kinetic binding data obtained from GH titration experiments was processed with BiaEvaluation 4.1 software (BIACORE™). […] Equilibrium dissociation constants (Kd) were calculated as ratios of individual rate constants (koff/kon).
row,Substance,kon [M⁻¹ s⁻¹]
1,G136pAF: hGH with p-acetyl-phenylalanine (pAF) substituted for G136,620000
2,R94pAF: hGH with p-acetyl-phenylalanine (pAF) substituted for R94,560000
3,Y103pAF: hGH with p-acetyl-phenylalanine (pAF) substituted for Y103,~6000
4,N12pAF: hGH with p-acetyl-phenylalanine (pAF) substituted for N12,1.25e+06
5,F92pAF: hGH with p-acetyl-phenylalanine (pAF) substituted for F92,860000
6,Y35pAF: hGH with p-acetyl-phenylalanine (pAF) substituted for Y35,780000
7,F92pAF-20KD PEG: hGH comprising p-acetyl-phenylalanine at position 92 covalently linked to a 20 kDa PEG molecule,170000
8,F92pAF-5KD PEG: hGH comprising p-acetyl-phenylalanine at position 92 covalently linked to a 5 kDa PEG molecule,620000
9,Q91pAF: hGH with p-acetyl-phenylalanine (pAF) substituted for Q91,660000
10,P133pAF: hGH with p-acetyl-phenylalanine (pAF) substituted for P133,640000
11,R134pAF-5KD PEG: hGH comprising p-acetyl-phenylalanine at position 134 linked to 5 kDa PEG,680000
12,R134pAF: hGH with p-acetyl-phenylalanine (pAF) substituted for R134,840000
13,S95pAF: hGH with p-acetyl-phenylalanine (pAF) substituted for S95,70000
14,G131pAF: hGH with p-acetyl-phenylalanine (pAF) substituted for G131,600000
15,Y111pAF: hGH with p-acetyl-phenylalanine (pAF) substituted for Y111,840000
16,N99pAF: hGH with p-acetyl-phenylalanine (pAF) substituted for N99,220000
17,R16pAF: hGH with p-acetyl-phenylalanine (pAF) substituted for R16,680000
18,A155pAF: hGH with p-acetyl-phenylalanine (pAF) substituted for A155,580000
19,K145pAF: hGH with p-acetyl-phenylalanine (pAF) substituted for K145,640000
20,T135pAF: hGH with p-acetyl-phenylalanine (pAF) substituted for T135,720000
21,Y143pAF: hGH with p-acetyl-phenylalanine (pAF) substituted for Y143,780000
22,F139pAF: hGH with p-acetyl-phenylalanine (pAF) substituted for F139,680000
23,K140pAF: hGH with p-acetyl-phenylalanine (pAF) substituted for K140,720000
